{"source": "the supplement of paper PMC10567573", "parents": {"B1": {"name": "RHOBTB3 (parent)", "chain": "GGADIIVIKYNVNDKFSFHEVKDN"}, "B2": {"name": "INTS4 (parent)", "chain": "AKQIMEETYKMEFMYSGVENKQVV"}}, "data": [{"variants_of": "B1", "experiment": "protein stability index of a GFP-peptide fusion (GPS, HEK-293T) (PSI 1-6); higher = more stable", "details": "c terminus: a fixed tail appended", "values": [{"variant": "GAADIIVIKYNVNDKFSFHEVKDN", "note": "[G2A]", "protein stability index": 1.69}, {"variant": "GFADIIVIKYNVNDKFSFHEVKDN", "note": "[G2F]", "protein stability index": 3.68}, {"variant": "GGFDIIVIKYNVNDKFSFHEVKDN", "note": "[A3F]", "protein stability index": 3.37}, {"variant": "GGTDIIVIKYNVNDKFSFHEVKDN", "note": "[A3T]", "protein stability index": 2.21}, {"variant": "GGADIIVIKYNVNDKFSFHEVKDS", "note": "[N24S]", "protein stability index": 2.71}, {"variant": "GGADIIVIKYNVNDKFSFHEVKDE", "note": "[N24E]", "protein stability index": 1.44}, {"variant": "GGADIIVIKYNVNDKSSFHEVKDN", "note": "[F16S]", "protein stability index": 3.13}, {"variant": "GGADIIVIKYNVNDKFSFHEVKNN", "note": "[D23N]", "protein stability index": 2.44}, {"variant": "GGADIIVIKYNVNKKFSFHEVKDN", "note": "[D14K]", "protein stability index": 3.14}, {"variant": "GGADIHVIKYNVNDKFSFHEVKDN", "note": "[I6H]", "protein stability index": 2.92}, {"variant": "GGADIYVIKYNVNDKFSFHEVKDN", "note": "[I6Y]", "protein stability index": 2.23}, {"variant": "GGADIIWIKYNVNDKFSFHEVKDN", "note": "[V7W]", "protein stability index": 1.52}, {"variant": "GGADIIPIKYNVNDKFSFHEVKDN", "note": "[V7P]", "protein stability index": 4.13}, {"variant": "GGADIIVIKYNVNDKFSFHEIKDN", "note": "[V21I]", "protein stability index": 2.23}, {"variant": "GGADIIVIKYNVNDKFSFHEGKDN", "note": "[V21G]", "protein stability index": 3.4}, {"variant": "GGADIIVIKYNQNDKFSFHEVKDN", "note": "[V12Q]", "protein stability index": 2.3}, {"variant": "GGADIIVIKYNVWDKFSFHEVKDN", "note": "[N13W]", "protein stability index": 1.96}, {"variant": "GGADIIVIKYNVLDKFSFHEVKDN", "note": "[N13L]", "protein stability index": 2.87}, {"variant": "GGADIIVIKYNVNDKFSNHEVKDN", "note": "[F18N]", "protein stability index": 1.39}, {"variant": "GGADIIVIKYNVNDKFSDHEVKDN", "note": "[F18D]", "protein stability index": 2.26}, {"variant": "GGADIIVIKYNVNDKFSLHEVKDN", "note": "[F18L]", "protein stability index": 2.53}, {"variant": "GGADIIVIKYNVNDKFSVHEVKDN", "note": "[F18V]", "protein stability index": 2.49}, {"variant": "VGADIIVIKYNVNDKFSFHEVKDN", "note": "[G1V]", "protein stability index": 2.1}, {"variant": "CGADIIVIKYNVNDKFSFHEVKDN", "note": "[G1C]", "protein stability index": 2.27}, {"variant": "IGADIIVIKYNVNDKFSFHEVKDN", "note": "[G1I]", "protein stability index": 2.53}, {"variant": "FGADIIVIKYNVNDKFSFHEVKDN", "note": "[G1F]", "protein stability index": 2.69}, {"variant": "GGADIIVIKYNVNDKFSFHSVKDN", "note": "[E20S]", "protein stability index": 2.76}, {"variant": "GGAFIIVIKYNVNDKFSFHEVKDN", "note": "[D4F]", "protein stability index": 1.97}, {"variant": "GGAVIIVIKYNVNDKFSFHEVKDN", "note": "[D4V]", "protein stability index": 3.66}, {"variant": "GGADIIVIKYNVNDKFSFMEVKDN", "note": "[H19M]", "protein stability index": 3.71}, {"variant": "GGADIIVIKYNVNDKFSFREVKDN", "note": "[H19R]", "protein stability index": 2.82}]}, {"variants_of": "B2", "experiment": "protein stability index of a GFP-peptide fusion (GPS, HEK-293T) (PSI 1-6); higher = more stable", "details": "c terminus: a fixed tail appended", "values": [{"variant": "AKQIMEETYKMEFMYSGVDNKQVV", "note": "[E19D]", "protein stability index": 1.78}, {"variant": "AKQIMEETYKMEFMYSGVANKQVV", "note": "[E19A]", "protein stability index": 2.52}, {"variant": "AKQIMEETYKMEFMYSGVQNKQVV", "note": "[E19Q]", "protein stability index": 1.84}, {"variant": "AKQIMEETYKMEFMYSGVINKQVV", "note": "[E19I]", "protein stability index": 1.54}, {"variant": "AKQIMEETYKMEFMYSGVLNKQVV", "note": "[E19L]", "protein stability index": 1.2}, {"variant": "AKQIMEETYKMEFMYSGVNNKQVV", "note": "[E19N]", "protein stability index": 1.91}, {"variant": "AKQIMEETYKMEFMYSGVHNKQVV", "note": "[E19H]", "protein stability index": 2.06}, {"variant": "AKQIMEETYKMEFMYSGVRNKQVV", "note": "[E19R]", "protein stability index": 1.95}, {"variant": "AKQIMEETYKMEFMYSGVPNKQVV", "note": "[E19P]", "protein stability index": 1.56}, {"variant": "AKQIMEETYKMEFMYSGVTNKQVV", "note": "[E19T]", "protein stability index": 1.85}, {"variant": "AKQIMEETYKMEFMYSGVVNKQVV", "note": "[E19V]", "protein stability index": 1.28}, {"variant": "AKQIMEETYKMEFMYSGVGNKQVV", "note": "[E19G]", "protein stability index": 1.9}, {"variant": "AKQIMEETYKMEFMYSGVYNKQVV", "note": "[E19Y]", "protein stability index": 1.09}, {"variant": "AKQIMEETYKMEFMYSGVKNKQVV", "note": "[E19K]", "protein stability index": 1.07}, {"variant": "AKQIMEETYKMEYMYSGVENKQVV", "note": "[F13Y]", "protein stability index": 2.96}, {"variant": "AKQIMEETYKMEVMYSGVENKQVV", "note": "[F13V]", "protein stability index": 1.67}, {"variant": "AKQIMEETYKMETMYSGVENKQVV", "note": "[F13T]", "protein stability index": 3.57}, {"variant": "AKQIMEETYKMEWMYSGVENKQVV", "note": "[F13W]", "protein stability index": 1.79}, {"variant": "AKQIMEETYKMEFMYSNVENKQVV", "note": "[G17N]", "protein stability index": 1.48}, {"variant": "AKQIMEETYKMEFMYSLVENKQVV", "note": "[G17L]", "protein stability index": 1.49}, {"variant": "AKQIMEETYKMEFMYSSVENKQVV", "note": "[G17S]", "protein stability index": 1.59}, {"variant": "AKQIMEETYKMEFMYSYVENKQVV", "note": "[G17Y]", "protein stability index": 1.84}, {"variant": "AKQIMEETYKMEFMYSPVENKQVV", "note": "[G17P]", "protein stability index": 1.29}, {"variant": "AKQIMEETYKMEFMYSEVENKQVV", "note": "[G17E]", "protein stability index": 1.55}, {"variant": "AKQIMEETYKMEFMYSAVENKQVV", "note": "[G17A]", "protein stability index": 1.51}, {"variant": "AKQIMEETYKMEFMYSQVENKQVV", "note": "[G17Q]", "protein stability index": 2.37}, {"variant": "AKQIMEETYKMEFMYSMVENKQVV", "note": "[G17M]", "protein stability index": 1.65}, {"variant": "AKQIMEETYKMEFMYSDVENKQVV", "note": "[G17D]", "protein stability index": 1.84}, {"variant": "AKQIMEETYKMEFMYSHVENKQVV", "note": "[G17H]", "protein stability index": 2.5}, {"variant": "AKQIMEETYKMEFMYSTVENKQVV", "note": "[G17T]", "protein stability index": 1.06}, {"variant": "AKQIMEETYKMEFMYSCVENKQVV", "note": "[G17C]", "protein stability index": 2.87}, {"variant": "AKQIMEETYKMEFMYDGVENKQVV", "note": "[S16D]", "protein stability index": 1.86}, {"variant": "AKQIMEETYKMEFMYQGVENKQVV", "note": "[S16Q]", "protein stability index": 1.91}, {"variant": "AKQIMEETYKMEFMYRGVENKQVV", "note": "[S16R]", "protein stability index": 1.36}, {"variant": "AKQIMEETYKMEFMYKGVENKQVV", "note": "[S16K]", "protein stability index": 1.7}, {"variant": "AKQIMEETYKMEFMYAGVENKQVV", "note": "[S16A]", "protein stability index": 2.15}, {"variant": "AKQIMEETYKMEFMYPGVENKQVV", "note": "[S16P]", "protein stability index": 2}, {"variant": "AKQIMEETYKMEFMYIGVENKQVV", "note": "[S16I]", "protein stability index": 2.62}, {"variant": "AKQIMEETYKMEFMYYGVENKQVV", "note": "[S16Y]", "protein stability index": 1.76}, {"variant": "AKQIMEETYKMEFMYHGVENKQVV", "note": "[S16H]", "protein stability index": 1.41}, {"variant": "AKQIMEETYKMEFMYTGVENKQVV", "note": "[S16T]", "protein stability index": 1.56}, {"variant": "AKQIMEETYKMEFMYNGVENKQVV", "note": "[S16N]", "protein stability index": 1.98}, {"variant": "AKQIMEETYKMEFMYMGVENKQVV", "note": "[S16M]", "protein stability index": 2.24}, {"variant": "AKQIMEETYKMEFMYCGVENKQVV", "note": "[S16C]", "protein stability index": 2.1}, {"variant": "AKQIMEETYKMEFMYGGVENKQVV", "note": "[S16G]", "protein stability index": 2.14}, {"variant": "AKQIMEETYKMEFMYFGVENKQVV", "note": "[S16F]", "protein stability index": 3.1}, {"variant": "AKQIMEETYKMEFMYLGVENKQVV", "note": "[S16L]", "protein stability index": 2.08}, {"variant": "AKQIMEETYKMEFMYSGVENKQDV", "note": "[V23D]", "protein stability index": 1.68}, {"variant": "AKQIMEETYKMEFMYSGVENKQIV", "note": "[V23I]", "protein stability index": 2.2}, {"variant": "AKQIMEETYKMEFMYSGVENKQAV", "note": "[V23A]", "protein stability index": 1.8}, {"variant": "AKQIMEETYKMEFMYSGVENKQNV", "note": "[V23N]", "protein stability index": 2.18}, {"variant": "AKQIMEETYKMEFMYSGVENKQHV", "note": "[V23H]", "protein stability index": 1.88}, {"variant": "AKQIMEETYKMEFMYSGVENKQFV", "note": "[V23F]", "protein stability index": 1.16}, {"variant": "AKQIMEETYKMEFMYSGVENKQCV", "note": "[V23C]", "protein stability index": 1.6}, {"variant": "AKQIMEETYKMEFMYSGVENKQKV", "note": "[V23K]", "protein stability index": 1.71}, {"variant": "AKQIMEETYKMEFMYSGVENKQGV", "note": "[V23G]", "protein stability index": 1.32}, {"variant": "AKQIMEETYKMEFMYSGVENKQTV", "note": "[V23T]", "protein stability index": 1.46}, {"variant": "AKQIMEETYKMEFMYSGVENKQRV", "note": "[V23R]", "protein stability index": 1.95}, {"variant": "AKQIMEETYKMEFMYSGVENKQSV", "note": "[V23S]", "protein stability index": 1.76}, {"variant": "AKQIMEETYKMEFMYSGVENKQPV", "note": "[V23P]", "protein stability index": 1.42}, {"variant": "AKQIMEETYKMEFMYSGVENKQEV", "note": "[V23E]", "protein stability index": 1.97}, {"variant": "AKQIMEETYKMEFMYSGVENKQMV", "note": "[V23M]", "protein stability index": 3.75}, {"variant": "AKQIMEETYKMEFMYSGVENFQVV", "note": "[K21F]", "protein stability index": 3.8}]}]}
